Assay results reported in publication PMC8137935, “Mechanosensitive channel YnaI has lipid-bound extended sensor paddles” (Communications Biology, 2021).

Target: the molecule itself
Assay: cryo-EM structure; purified YnaI in LMNG at ~5 mg/ml, with 3 mM fluorinated Fos-Choline-8 added right before freezing; C7 symmetry imposed; 3.3 Å

B1: YnaI (natural protein, Escherichia coli, UniProt P0AEB5 1-343, looked up)
chain: MIAELFTNNALNLVIIFGSCAALILMSFWFRRGNRKRKGFLFHAVQFLIYTIIISAVGSIINYVIENYKLKFITPGVIDFICTSLIAVILTIKLFLLINQFEKQQIKKGRDITSARIMSRIIKITIIVVLVLLYGEHFGMSLSGLLTFGGIGGLAVGMAGKDILSNFFSGIMLYFDRPFSIGDWIRSPDRNIEGTVAEIGWRITKITTFDNRPLYVPNSLFSSISVENPGRMTNRRITTTIGLRYEDAAKVGVIVEAVREMLKNHPAIDQRQTLLVYFNQFADSSLNIMVYCFTKTTVWAEWLAAQQDVYLKIIDIVQSHGADFAFPSQTLYMDNITPPEQGR
notes: YnaI, Escherichia coli, full-length, UniProt P0AEB5; in the model residues of TM-2 are built as Ala and N335-R343 have no density; Homoheptamer with co-purified lipids; Cloned into pET52b; also called mechanosensitive channel YnaI; MscS homolog YnaI; source: E. coli BL21(DE3) C43, purified in LMNG (TALON, thrombin cut, TALON flow-through, Superose 6); not shown: His-tag, C-terminal, cleaved
In the case of B1, the “stoichiometry N” value is reported as 7.
